In article PMC4267640:

Target: DNA polymerase alpha catalytic core (p180 core) (human, UniProt P09884 335-1257)
Assay: X-ray crystallography

Sequence of DNA polymerase alpha catalytic core (p180 core) (P09884 335-1257): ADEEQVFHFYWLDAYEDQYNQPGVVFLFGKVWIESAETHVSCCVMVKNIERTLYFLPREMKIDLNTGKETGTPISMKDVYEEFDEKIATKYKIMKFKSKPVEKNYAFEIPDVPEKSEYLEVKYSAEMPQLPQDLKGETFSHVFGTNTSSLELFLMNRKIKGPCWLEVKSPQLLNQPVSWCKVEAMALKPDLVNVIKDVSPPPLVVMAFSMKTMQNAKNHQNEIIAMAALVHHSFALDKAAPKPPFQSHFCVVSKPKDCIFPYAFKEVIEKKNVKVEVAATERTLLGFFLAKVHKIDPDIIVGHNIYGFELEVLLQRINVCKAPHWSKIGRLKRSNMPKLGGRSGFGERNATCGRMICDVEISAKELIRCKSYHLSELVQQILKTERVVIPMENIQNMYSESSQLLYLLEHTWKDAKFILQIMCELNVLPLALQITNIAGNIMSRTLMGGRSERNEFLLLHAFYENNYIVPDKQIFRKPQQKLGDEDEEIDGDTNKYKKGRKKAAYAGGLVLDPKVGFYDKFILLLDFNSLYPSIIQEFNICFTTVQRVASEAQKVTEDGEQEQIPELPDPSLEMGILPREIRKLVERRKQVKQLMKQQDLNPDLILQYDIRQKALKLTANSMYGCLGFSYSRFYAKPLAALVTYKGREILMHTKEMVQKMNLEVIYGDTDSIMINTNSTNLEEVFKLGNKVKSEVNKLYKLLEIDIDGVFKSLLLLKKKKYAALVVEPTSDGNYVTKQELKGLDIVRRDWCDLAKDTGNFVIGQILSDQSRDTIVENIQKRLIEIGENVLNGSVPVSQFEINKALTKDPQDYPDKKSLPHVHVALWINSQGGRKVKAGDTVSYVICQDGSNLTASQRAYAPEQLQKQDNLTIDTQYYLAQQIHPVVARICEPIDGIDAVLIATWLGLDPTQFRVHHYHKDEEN

B1: RNA-primed DNA template (DNA:RNA)
DNA: ATTACTATAGGCGCTCCAGGC
RNA: GCCUGGAGCGC
modifications: primer strand is RNA with a 3'-terminal dideoxycytidine (ddC)
Question: Does B1 bind?
Answer: binds
